In this experiment the target is ZMYND8 (UniProt Q9ULU4). As to the kind of experiment: co-IP of Flag-ZMYND8 and Myc-EZH2. Conditions: reference: wild type; sites T487.

On to EZH2 (from UniProt Q15910) T487A, for which the “binding against the reference” value was “weaker”.

Values taken from paper PMC7923384.
